The term Kd denotes the constant that tells how readily two partners part at equilibrium.

The target of this experiment is recombinant human PKM2 (rhPKM2) (human, UniProt P14618 1-531). Briefly: SPR. (In general: Surface plasmon resonance follows binding to a sensor surface in real time, without labels.)
recombinant human PKM2 (rhPKM2), sequence (P14618 whole entry): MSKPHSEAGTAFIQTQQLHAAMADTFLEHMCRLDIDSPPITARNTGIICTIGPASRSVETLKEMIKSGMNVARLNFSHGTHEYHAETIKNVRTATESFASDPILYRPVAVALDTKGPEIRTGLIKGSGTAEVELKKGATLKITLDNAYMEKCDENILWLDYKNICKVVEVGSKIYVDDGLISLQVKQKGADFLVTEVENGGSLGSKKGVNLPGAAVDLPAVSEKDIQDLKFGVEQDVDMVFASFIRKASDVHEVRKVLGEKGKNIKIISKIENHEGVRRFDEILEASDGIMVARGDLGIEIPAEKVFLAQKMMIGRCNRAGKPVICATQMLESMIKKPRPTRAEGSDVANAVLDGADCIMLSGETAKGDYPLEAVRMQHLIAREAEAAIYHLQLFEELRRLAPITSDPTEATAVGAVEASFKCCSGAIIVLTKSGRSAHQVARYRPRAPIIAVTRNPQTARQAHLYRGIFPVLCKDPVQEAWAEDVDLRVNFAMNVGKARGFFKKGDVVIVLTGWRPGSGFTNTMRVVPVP

B1: recombinant hPFN2 (rhPFN2) (natural protein, human, UniProt P35080 1-140, looked up)
chain: MAGWQSYVDNLMCDGCCQEAAIVGYCDAKYVWAATAGGVFQSITPIEIDMIVGKDREGFFTNGLTLGAKKCSVIRDSLYVDGDCTMDIRTKSQGGEPTYNVAVGRAGRVLVFVMGKEGVHGGGLNKKAYSMAKYLRDSGF
Regarding B1, the Kd turned out to be 50.6 nM.

Values taken from PMC12123718 (Respiratory Research, 2025).
